What was measured:
Atg19 C-terminus (yeast) = Atg19 C-terminus (yeast) (UniProt P35193); experiment: SEC
[1] = biological target: Atg19 (wild type full-length protein) (yeast) (UniProt P35193); experiment: ITC

Atg8 (from UniProt P38182 1-117) (natural protein)
stoichiometry N (Atg8 molecules per 1 Atg19 C-terminus) (Atg19 C-terminus (yeast)): 4.14 | Kd [1]: 35 µM
